System: MS2 coat protein
Test: apparent KD of MS2 coat protein; designed switch direction (-1 OFF switch, 1 ON switch): -1; higher = weaker reporter binding
Outline: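 Designed RNA switches with common flanks were made on Illumina chips by stalled E. coli RNA polymerase. Titration with SNAP-549-labelled MS2 coat protein doubled from 0.7 or 1.5 nM up to 3 µM. Apparent KD is each design's median over clusters after curve-fitting normalised fluorescence.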

[1] = Eterna round: R95, input ligand: FMN 200 uM
[2] = Eterna round: R95, input ligand: microRNA oligo, concentration not stated
[3] = Eterna round: R95, input ligand: none
[4] = input ligand: microRNA oligo, concentration not stated

Sequence	apparent KD of MS2 coat protein (input ligand: FMN 200 uM) [µM]	apparent KD of MS2 coat protein (input ligand: none) [µM]	apparent KD of MS2 coat protein [2] [µM]	further results
GUCAUCAAACAUGGGAUUAACAUGAGGAUCACCCAUGUUAACAAGUUUUUUGCUCGUCUUAUAAUAAGUUUGAUGAC [Antenna 10 - Jieux - Sensor, turn-off variant 1] (Eterna round: R97, puzzle: Sensor, turn-off variant 1)	0.0076	0.013		
UGAUCCGGUGUGAGGAUAUUUAACCUCAUAUAGGUAAAGAAGGCACAUGAGGAUCACCCAUGUCGAGGCCCGAU [Eternabot (L2) Solution 74] (Eterna round: R97, puzzle: Brourd's mod of Exclusion 4)	0.209	0.168		
AAACUGCAUGUGAGGAUAUGCACCAGCUAAGCCGGGCAGAAGGCACAUGAGGAUCACCCAUGUCAUCCUAUUGC [Latibibe] (puzzle: Brourd's mod of Exclusion 4)			0.0116	apparent KD of MS2 coat protein [1]: 0.0265 µM; apparent KD of MS2 coat protein [3]: 0.0144 µM
UAGCCAUCGUGAGAUGGCUUUCAUACAUGAGGAUCACCCAUGUAGGAUAUCGAUUGCUUUGCAGUCGAGAAGGGCAUGUAUAAU [JL ENG3 3.95] (Eterna round: R96, puzzle: Exclusion NG 3)	0.0348	0.0291		apparent KD of MS2 coat protein [4]: 0.0228 µM
UUAAAGGCGGAGGAUAUGUAGGCUUUCGAGUCGACAGAAGGCCGCACAUGAGGAUCACCCAUGUGGUCCUCCAA [EX6 A.20] (Eterna round: R97, puzzle: Exclusion 6)	0.219	0.0518		
GCAGGAUAAGUCAGGAUAUACCUAUGGAUACAUAGGUAGAAGGGACAUGAGGAUCACCCAUGUGCCUCACCUGC [Fiskers BMX 4 - 57] (puzzle: Brourd's mod of Exclusion 4)			0.0166	apparent KD of MS2 coat protein [1]: 0.0487 µM; apparent KD of MS2 coat protein [3]: 0.0161 µM
CUUGCAUUGCGAGGAUAUCCAACGUGGCUCGUGCUUACAUGAGGAUCACCCAUGUUCUACUAAAAGGAGAAGGCGCUUGGAGGA [Endixexebe] (Eterna round: R96, puzzle: Exclusion NG 2)	0.0488	0.0255		apparent KD of MS2 coat protein [4]: 0.0168 µM
GCAAGCUUUUCGAUCCUCUACAUGAGGAUCACCCAUGUGCUCGAAUUGUUUGGUACUAUCACGAAAGUGAUAGUACA [Sensor, turn off variant 1 v.4] (Eterna round: R97, puzzle: Sensor, turn-off variant 1)	0.936	1.15		
CAAUUCCGAGGAUAUACAUGAGGAUCACCCAUGUCGGGCCUCAGCGUUUAGCGCGUAAGUAGAAGGUGGGUUUC [JL Riri mod 6] (puzzle: Exclusion 3)			0.0295	
AAGUAUAGAGGAUAUAGUGAGUACUACAUGAGGAUCACCCAUGUUCUUCAAAGCGUACUUCUAGAAGGCUGAUAAA [EX-5 Malc#16] (puzzle: Exclusion 5)			0.251	apparent KD of MS2 coat protein [1]: 0.381 µM; apparent KD of MS2 coat protein [3]: 0.208 µM
GCCUAACAUGAGGAUCACCCAUGUAAGGAUAUGAUUAGUCGUUUGUAAGCAGCGCGACUCAGAAGGUACUUGGG [Eternabot (L1) Solution 34] (Eterna round: R97, puzzle: Exclusion 1)	0.072	0.0254		
AAGUCGAGCGUGAGGAUAUCGUUCGAACGACCGAACGAGAAGGCACAUGAGGAUCACCCAUGUGAUUCAGCUCA [Brourd's EX4 #47] (Eterna round: R97, puzzle: Brourd's mod of Exclusion 4)	0.0936	0.0197		
AAUAACAGAGGAUAUACUAUUUUAUGUGUUUAUUGUUUUGAACAUGAGGAUCACCCAUGUAGAAGGCUGAAUAA [JMF 24] (puzzle: Exclusion 2)			0.0223	
CUCCUCAUGGCGCCUAAACACAUGAGGAUCACCCAUGUGCAGGCUUUUUGCCGUCUUAUAAUAAAACCGAGGAUGCG [Vegequ] (puzzle: Sensor v3, turn-off variant 1)			0.0778	apparent KD of MS2 coat protein [1]: 0.0169 µM; apparent KD of MS2 coat protein [3]: 0.0162 µM
ACGAGGGUUACAGGAUAUGAAGCUAAAACGGCGUUAGAAGGGUAUACAGAGUUACAUGAGGAUCACCCAUGUUGUGACUUCGAA [AK ExNG1-V2-4] (Eterna round: R96, puzzle: Exclusion NG 1)				apparent KD of MS2 coat protein [4]: 0.0294 µM
GGACCGUGUGUGAGGAUAUGCUGGUCCUUGGAUCAGCAGAAGGCACAUGAGGAUCACCCAUGUGGUGUCGGUCC [Eli bmx4 4.35] (Eterna round: R97, puzzle: Brourd's mod of Exclusion 4)	0.182	1.78		
GCGCACCUACCAAAAGGUAGGCUAACAUGAGGAUCACCCAUGUAGGAUAUCGAUUGCUUUGCAGUCGAGAAGGACGUGAUGCGC [JL ENG3 3.80 Mod 19] (Eterna round: R96, puzzle: Exclusion NG 3)	0.0259	0.0233		apparent KD of MS2 coat protein [4]: 0.0173 µM
UGAUCUUGAGUCAGGAUAUGCUGGUUUUUUUUUUAGCAGAAGGGACAUGAGGAUCACCCAUGUUCUCACUUUUU [Magic-12] (puzzle: Brourd's mod of Exclusion 4)			0.0168	

Sequence	apparent KD of MS2 coat protein (input ligand: FMN 200 uM) [µM]	apparent KD of MS2 coat protein (input ligand: none) [µM]	apparent KD of MS2 coat protein [2] [µM]	further results
ACCGUGAGGGUGAGGAUAUUCUGAGGGACGCCCUGGAAGAAGGUACAUGAGGAUCACCCAUGUGGCCUCAGACU [Eternabot (L2) Solution 99] (Eterna round: R97, puzzle: Brourd's mod of Exclusion 4)	0.0358	0.0324		
CGUCCUGUAGUCAGGAUAUUGUCUCGGAUACGAAACAAGAAGGGACAUGAGGAUCACCCAUGUAAUCAGGACGA [Malc #30 mod 13] (puzzle: Brourd's mod of Exclusion 4)			0.0365	apparent KD of MS2 coat protein [1]: 0.0195 µM; apparent KD of MS2 coat protein [3]: 0.0365 µM
CCGACCCUAGGAUAUUGUACUGCUGACAUGAGGAUCACCCAUGUAUGUUAACUCGGCCGACGAGAAGGAGGCGAAA [BotMod 5 - Jieux - Exclusion 5] (Eterna round: R97, puzzle: Exclusion 5)	0.0217	0.0203		
GGUGCGUAUGUGAGGAUAUGCUGGUCCUUGGAUCUGCAGAAGGCACAUGAGGAUCACCCAUGUGGUGUCGUACC [salish99_Bmod_Ex4_024] (puzzle: Brourd's mod of Exclusion 4)			0.276	
CACCGUUAAGGAGGAUAUCGUACAUGAGGAUCACCCAUGUAAUAAAUGAGAAUUUCGGAUGUAUGCGAGAAGGCCUAAAUCGGC [Ostracism 44 - Jieux - Exclusion NG 2] (Eterna round: R96, puzzle: Exclusion NG 2)				apparent KD of MS2 coat protein [4]: 0.0347 µM
GCAAGCUUUUGCUCGUCUUACAUGAGGAUCACCCAUGUCGGGCCCGGCCGUCGCGGCCGGGCCCGCCGGGCGCCGGG [-41.9, -69.5 kcal, A 10%] (Eterna round: R97, puzzle: Sensor, turn-off variant 1)	0.0535	0.0641		
CCUCCACAUGAGGAUCACCCAUGUCAGGAUAUCGUGUGUGCGUUUUCGGUCUUUCGUGCGAGAAGGGACGUCUG (puzzle: Exclusion 1)			0.0527	
UCUCGCGGGCAAGGAUAUCCUACGUUGUUCUGGCCCGGGCAUGUUACAUGAGGAUCACCCAUGUGGGAGAAGGUGCGCCAGGGC [Design 36] (Eterna round: R96, puzzle: Exclusion NG 2)	0.0368	0.0367		apparent KD of MS2 coat protein [4]: 0.0282 µM
GCUUAACAUGUAGGAUAUGCGUGGCGAAGCUAUGCAGAAGGACAUGAGGAUCACCCAUGUUUUAGCGUCUGCGUACAGAUGCGU [JL ENG1 1.42] (Eterna round: R96, puzzle: Exclusion NG 1)	0.178	0.0224		apparent KD of MS2 coat protein [4]: 0.0198 µM
UUUUAACAUGAGGAUCACCCAUGUGAGGAUAUCGAAAUUUAUAUUAAUAUUUAUUUAUCGAGAAGGCACAUUUU [JMF 64] (puzzle: Exclusion 1)			0.12	
CGUGACUGAGGAUAUCUAUGAUGUCACAUGAGGAUCACCCAUGUCCAGCGAAAGCUGGAGGGAGAAGGCAGUCACG [Fiskers Ex 5 - 31] (puzzle: Exclusion 5)			0.122	apparent KD of MS2 coat protein [1]: 0.0345 µM; apparent KD of MS2 coat protein [3]: 0.115 µM
GUGAAGUGAGGAUAUACGAGAGAGGCUGAACCGGACGAGAAGUAGAAGGCACAUGAGGAUCACCCAUGUACGGG [JR_Exclu4_Sub023] (puzzle: Exclusion 4)			0.164	
GAACCGCGAGGAUAUACAGUCGAGUCCAUUACGUGUCUCGGACUUGAGGAUCACCCAAGUAGAAGGCGUCUCAG [salish99_ex2_r4_634] (Eterna round: R97, puzzle: Exclusion 2)	0.0963	0.188		
GAAAAGUAAGGAUAUUCACACAGUGAGGAAACUCACUGUGUGGAGAAGGUACAUGAGGAUCACCCAUGUUUCUC [ExDelusion 1 - Jieux - Exclusion 4] (Eterna round: R97, puzzle: Exclusion 4)	0.229	0.0303		
UCUUAUUGAGGAUAUACAUUAAUUUACAUGAGGAUCACCCAUGUUCUUCAAUGUAUAUAUGUAGAAGGCAGAAGAU [Mat - Exclusion 5 - JL Mod - D29] (Eterna round: R97, puzzle: Exclusion 5)	0.0414	0.0181		
GUCAGACGAGGAUAUAAAUUUGAUAACAUGAGGAUCACCCAUGUGAUCGAUAGAUCAAAUUUAGAAGGCGUCUGAC [E5/7-A4] (Eterna round: R97, puzzle: Exclusion 5)	0.52	0.492		
GUGUAGUGAGGAUAUACAUGAGGAUCACCCAUGUGAAUAAGAUAGAAUAAGAUAAAGUGUAGAAGGCAUAGUGU [Excluse me!!! 21 - Jieux - Exclusion 3] (puzzle: Exclusion 3)			0.0393	
